Measurements from the supplement of paper PMC10567573.

B1: AUP1 (parent)
chain: FCASTRLPPTPLLLFPEEEATNGR
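Note: lentivirally expressed fusions sorted by FACS into six bins by GFP to DsRed ratio, PSI derived from sequencing read proportions per bin multiplied by bin number.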

Variants of: B1
Experiment: protein stability index of a GFP-peptide fusion (GPS, HEK-293T) (PSI 1-6); higher = more stable
Details: c terminus: a fixed tail appended
With FCASTRLPPTPLLLFPEEAATNGR [E19A] the protein stability index was 2.74. For FCASTRLPPTPLLLFPEESATNGR [E19S], the protein stability index was 2.31. For FCASTRLPPTPLLLFPEEERTNGR [A20R], the protein stability index was 2.77. In the case of FCASTRLPPTPLLLFPEEESTNGR [A20S], the protein stability index is reported as 3.21. With FCASTRLPPTPLLLFPEEEHTNGR [A20H] the protein stability index was 2.81. Variant FCASTRLPPTPLLLFPEEEVTNGR [A20V] has a protein stability index of 2.7. In the case of FCASTRLPPTPLLLFPEEEDTNGR [A20D], the protein stability index is reported as 3.12. FCASTRLPPTPLLLFPEEEMTNGR [A20M] gave a protein stability index of 2.88. FCASTRLPPTPLLLFPEEENTNGR [A20N] gave a protein stability index of 2.43. With FCASTRLPPTPLLLFPEEEGTNGR [A20G] the protein stability index was 2.79. Variant FCASTRLPPTPLLLFPEEEFTNGR [A20F] has a protein stability index of 2.21. With FCASTRLPPTPLLLFPEEEETNGR [A20E] the protein stability index was 3.51. With FCASTRLPPTPLLLFPEEECTNGR [A20C] the protein stability index was 2.38. For FCASTRLPPTPLLLFPEEEQTNGR [A20Q], the protein stability index was 2.96. For FCASTRLPPTPLLLFPEEEKTNGR [A20K], the protein stability index was 2.93. FCASTRLPPTPLLLFPEEETTNGR [A20T] gave a protein stability index of 2.97. Variant FCASTRLPPTPLLLFPEEEYTNGR [A20Y] has a protein stability index of 2.48. FCASTRLPPTPLLLFPEEELTNGR [A20L] gave a protein stability index of 2.72. For FCASTRLPPTPLLLFPEEEWTNGR [A20W], the protein stability index was 2.15. Work on FCASTRLPPTPLLLFPEEEITNGR [A20I] yielded a protein stability index of 2.3. For FCASTRLPPTPLLLFPEEEPTNGR [A20P], the protein stability index was 2.75. For FCASTRLPPTPLLLFPENEATNGR [E18N], the protein stability index was 2.37. FCASTRLPPTPLLLFPETEATNGR [E18T] showed a protein stability index of 2.2. With FCASTRLPPTPLLLFPELEATNGR [E18L] the protein stability index was 2.54. In the case of FCASTRLPPTPLLLFPEMEATNGR [E18M], the protein stability index is reported as 1.94. For FCASTRLPPTPLLLFPESEATNGR [E18S], the protein stability index was 2.12. For FCASTRLPPTPLLLFPEYEATNGR [E18Y], the protein stability index was 2.07. For FCASTRLPPTPLLLFPEFEATNGR [E18F], the protein stability index was 1.82. For FCASTRLPPTPLLLFPEIEATNGR [E18I], the protein stability index was 2.4. FCASTRLPPTPLLLFPEGEATNGR [E18G] showed a protein stability index of 2.54. Work on FCASTRLPPTPLLLFPEDEATNGR [E18D] yielded a protein stability index of 2.52. Work on FCASTRLPPTPLLLFPEKEATNGR [E18K] yielded a protein stability index of 2.32. With FCASTRLPPTPLLLFPEHEATNGR [E18H] the protein stability index was 2.15. FCASTRLPPTPLLLFPEWEATNGR [E18W] showed a protein stability index of 1.73. FCASTRLPPTPLLLFPEPEATNGR [E18P] showed a protein stability index of 2.15. FCASTRLPPTPLLLFPEREATNGR [E18R] gave a protein stability index of 2.23. FCASTRLPPTPLLLFPEAEATNGR [E18A] showed a protein stability index of 2.19. FCASTRLPPTPLLLFPEVEATNGR [E18V] gave a protein stability index of 2.21. For FCASTRLPPTPLLLFPEQEATNGR [E18Q], the protein stability index was 2.72. FCASTRLPPTPLLLFPECEATNGR [E18C] gave a protein stability index of 2.18. In the case of FCASTRLPPTPYLLFPEEEATNGR [L12Y], the protein stability index is reported as 1.97. Variant FCASTRLPPTPNLLFPEEEATNGR [L12N] has a protein stability index of 3.35. With FCASTRLPPTPGLLFPEEEATNGR [L12G] the protein stability index was 2.87. Work on FCASTRLPPTPKLLFPEEEATNGR [L12K] yielded a protein stability index of 3.6. Variant FCASTRLPPTPDLLFPEEEATNGR [L12D] has a protein stability index of 3.72. FCASTRLPPTPMLLFPEEEATNGR [L12M] gave a protein stability index of 3.25. For FCASTRLPPTPRLLFPEEEATNGR [L12R], the protein stability index was 3.12. Work on FCASTRLPPTPELLFPEEEATNGR [L12E] yielded a protein stability index of 4.1. FCASTRLPPTPHLLFPEEEATNGR [L12H] showed a protein stability index of 2.87. FCASTRLPPTPILLFPEEEATNGR [L12I] gave a protein stability index of 2.58. Work on FCASTRLPPTPSLLFPEEEATNGR [L12S] yielded a protein stability index of 3.47. For FCASTRLPPTPVLLFPEEEATNGR [L12V], the protein stability index was 3.31. Variant FCASTRLPPTPQLLFPEEEATNGR [L12Q] has a protein stability index of 3.7. With FCASTRLPPTPFLLFPEEEATNGR [L12F] the protein stability index was 3.16. For FCASTRLPPTPWLLFPEEEATNGR [L12W], the protein stability index was 2.77. FCASTRLPPTPCLLFPEEEATNGR [L12C] showed a protein stability index of 2.95. FCASTRLPPTPLLLFVEEEATNGR [P16V] gave a protein stability index of 1.8. Work on FCASTRLPPTPLLLFWEEEATNGR [P16W] yielded a protein stability index of 2.48. Variant FCASTRLPPTPLLLFQEEEATNGR [P16Q] has a protein stability index of 2.6. With FCASTRLPPTPLLLFDEEEATNGR [P16D] the protein stability index was 3.05. In the case of FCASTRLPPTPLLLFKEEEATNGR [P16K], the protein stability index is reported as 2.26. For FCASTRLPPTPLLLFAEEEATNGR [P16A], the protein stability index was 2.68. For FCASTRLPPTPLLLFEEEEATNGR [P16E], the protein stability index was 3.48. FCASTRLPPTPLLLFHEEEATNGR [P16H] showed a protein stability index of 2.61. In the case of FCASTRLPPTPLLLFSEEEATNGR [P16S], the protein stability index is reported as 2.4. FCASTRLPPTPLLLFNEEEATNGR [P16N] showed a protein stability index of 2.9. Work on FCASTRLPPTPLLLFTEEEATNGR [P16T] yielded a protein stability index of 1.74. Work on FCASTRLPPTPLLLFYEEEATNGR [P16Y] yielded a protein stability index of 2.03. For FCASTRLPPTPLLLFCEEEATNGR [P16C], the protein stability index was 2.08. For FCASTRLPPTPLLLFFEEEATNGR [P16F], the protein stability index was 2.24. FCASTRLPPTPLLLFIEEEATNGR [P16I] gave a protein stability index of 1.62. Variant FCASTRLPPTPLLLFMEEEATNGR [P16M] has a protein stability index of 2.15. For FCASTRLPPTPLLLFREEEATNGR [P16R], the protein stability index was 2.19. For FCASTRLPPTPLLLFLEEEATNGR [P16L], the protein stability index was 1.57. Work on FCASTRLPPTPLLLFGEEEATNGR [P16G] yielded a protein stability index of 2.69. FCASTRLPPTPLLAFPEEEATNGR [L14A] gave a protein stability index of 3.58. FCASTRLPPTPLLQFPEEEATNGR [L14Q] gave a protein stability index of 3.88. In the case of FCASTRLPPTPLLWFPEEEATNGR [L14W], the protein stability index is reported as 1.38. In the case of FCASTRLPPTPLLDFPEEEATNGR [L14D], the protein stability index is reported as 4.01. Variant FCASTRLPPTPLLCFPEEEATNGR [L14C] has a protein stability index of 2.4. Work on FCASTRLPPTPLLEFPEEEATNGR [L14E] yielded a protein stability index of 3.74. For FCASTRLPPTPLLTFPEEEATNGR [L14T], the protein stability index was 3.41. FCASTRLPPTPLLGFPEEEATNGR [L14G] showed a protein stability index of 2.66. In the case of FCASTRLPPTPLLNFPEEEATNGR [L14N], the protein stability index is reported as 3.61. FCASTRLPPTPLLKFPEEEATNGR [L14K] gave a protein stability index of 2.8. With FCASTRLPPTPLLPFPEEEATNGR [L14P] the protein stability index was 3.48. Work on FCASTRLPPTPLLIFPEEEATNGR [L14I] yielded a protein stability index of 3. FCASTRLPPTPLLFFPEEEATNGR [L14F] showed a protein stability index of 2.14. Variant FCASTRLPPTPLLSFPEEEATNGR [L14S] has a protein stability index of 3.44. FCASTRLPPTPLLYFPEEEATNGR [L14Y] showed a protein stability index of 2.59. Work on FCASTRLPPTPLLRFPEEEATNGR [L14R] yielded a protein stability index of 3.56. With FCASTRLPPTPLLVFPEEEATNGR [L14V] the protein stability index was 3.24. FCASTRLPPTPLLHFPEEEATNGR [L14H] showed a protein stability index of 3.49. For FCASTRLPPTPLLMFPEEEATNGR [L14M], the protein stability index was 3.29.
